pKd: −log10 of the molar value. Several values for one entry are separate records, joined by “and”; a condition that tells them apart may be missing. Equal values may be shown once.

Assay [1] deals with FcgammaRIIB (CD32b), Y163 allotype (UniProt P31994). As to the kind of experiment: SPR. On the technique in general: SPR reads the build-up and loss of mass on a sensor chip optically.
Assay [2] deals with FcgammaRIIIA (CD16a), F158 allotype (UniProt P08637). As to the kind of experiment: SPR.
The target in assay [3] is neonatal Fc receptor (FcRn) (UniProt P55899). As to the kind of experiment: SPR pH 6.0, Ab captured on goat anti-human IgG, FcRn flowed.
Sequence of neonatal Fc receptor (FcRn) (P55899 24-297 limits assumed, chain 1 of 2): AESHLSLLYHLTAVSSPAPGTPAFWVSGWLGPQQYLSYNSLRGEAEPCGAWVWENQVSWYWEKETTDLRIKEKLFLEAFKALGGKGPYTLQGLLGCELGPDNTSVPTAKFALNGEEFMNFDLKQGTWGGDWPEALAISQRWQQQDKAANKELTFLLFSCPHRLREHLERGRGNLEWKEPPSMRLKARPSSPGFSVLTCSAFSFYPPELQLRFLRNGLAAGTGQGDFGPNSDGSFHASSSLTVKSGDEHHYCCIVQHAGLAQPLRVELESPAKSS
Sequence of neonatal Fc receptor (FcRn) (P61769 21-119 limits assumed, chain 2 of 2, further chain): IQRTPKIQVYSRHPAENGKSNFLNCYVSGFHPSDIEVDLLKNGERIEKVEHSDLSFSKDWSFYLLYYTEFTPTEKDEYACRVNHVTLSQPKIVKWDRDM

Sequence of FcgammaRIIIA (CD16a), F158 allotype (P08637 17-208 limits assumed): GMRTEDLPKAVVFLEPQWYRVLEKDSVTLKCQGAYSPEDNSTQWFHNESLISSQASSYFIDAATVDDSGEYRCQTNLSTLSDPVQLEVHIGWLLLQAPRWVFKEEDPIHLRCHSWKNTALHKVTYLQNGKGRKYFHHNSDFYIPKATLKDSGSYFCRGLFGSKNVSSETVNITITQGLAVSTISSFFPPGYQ
Sequence of FcgammaRIIB (CD32b), Y163 allotype (P31994 43-217 limits assumed): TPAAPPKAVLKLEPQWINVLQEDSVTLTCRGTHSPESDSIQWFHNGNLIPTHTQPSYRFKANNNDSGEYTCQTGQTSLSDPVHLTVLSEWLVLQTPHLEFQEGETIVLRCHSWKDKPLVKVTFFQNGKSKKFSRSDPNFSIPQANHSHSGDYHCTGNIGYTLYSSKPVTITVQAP

In the case of “T350V_L351Y_S400E_F405A_Y407V / T350V_L351Y_T366L_N390R_K392M_T394W (antibody)”, the negative logarithm of the Kd (pKd) (usually the negative decadic logarithm of the Kd, by convention in mol/L) in assay [1] is 6.15.

“T350V_L351Y_S400E_F405A_Y407V / T350V_T366L_N390R_K392F_T394W (antibody)” had a pKd in assay [1] of 6.15.

Turning to “T350V_L351Y_S400R_F405A_Y407V / T350V_T366L_N390E_K392M_T394W (antibody)”, the pKd in assay [1] was 6.05; in assay [2], 6.38.

“Q347R_T350V_L351Y_S400E_F405A_Y407V / T350V_K360E_T366L_N390R_K392M_T394W (antibody)”: the negative logarithm of the Kd (pKd) in assay [1] is 6.04; in assay [2] it was 6.38.

As for “Y349C_F405A_Y407V / S354C_T366L_T394W (antibody)”, the pKd in assay [1] was 5.92; in assay [2] it was 6.24.

Regarding “AZ138 (A: F405A/Y407V, B: T366L/K392M/T394W) (antibody)”, in assay [2], the pKd is 6.34.

In the case of “T350V_L351Y_S400E_F405S_Y407V / T350V_T366L_N390R_K392M_T394W (antibody)”, the figures for the pKd in assay [1] and in assay [2] were 6.08 and 6.38, respectively.

Turning to “Y349C_T350V_L351Y_S400E_F405A_Y407V / T350V_S354C_T366L_N390R_K392M_T394W (antibody)”, the results for the pKd in assay [1] and in assay [2] were 6.02 and 6.38, respectively.

Take “Y349C_D399C_F405A_Y407V / S354C_T366L_K392C_T394W (antibody)”: the negative-log Kd (pKd) in assay [2] is 6.20.

Substance “T350V_L351Y_S400R_F405A_Y407V / T350V_T366L_N390D_K392M_T394W (antibody)” gave a negative logarithm of the Kd (pKd) in assay [1] of 6.03.

As for “AZ3003 (A: T350V/L351Y/F405A/Y407V, B: T350V/T366L/K392L/T394W) (antibody)”, the negative logarithm of the Kd (pKd) in assay [1] is 6.00; in assay [3], 5.41.

Take “AZ133 (A: L351Y/F405A/Y407V, B: T366L/K392M/T394W) (antibody)”: the values for the pKd in assay [2] and in assay [3] were 6.38 and 5.30, respectively.

As to “T350V_L351Y_S400R_F405A_Y407V / T350V_T366L_K392M_T394W (antibody)”, the pKd in assay [1] is 6.05.

Regarding “AZ3002 (A: T350V/L351Y/F405A/Y407V, B: T350V/T366L/K392M/T394W) (antibody)”, the results for the pKd in assay [1], in assay [2] and in assay [3] were 5.92, 6.34 and 5.37, respectively.

With “Y349C_T350V_F405A_Y407V / T350V_S354C_T366L_K392M_T394W (antibody)”, the pKd is 6.34 in assay [2] and 5.39 in assay [3].

Regarding “Herceptin WT (wild-type IgG1 anti-HER-2/neu antibody)”, the results for the negative logarithm of the Kd (pKd) in assay [1] and in assay [3] were 5.77 and 5.43, respectively.

In the case of “D399C_F405A_Y407V / T366L_K392C_T394W (antibody)”, the negative logarithm of the Kd (pKd) in assay [1] is 5.92; in assay [2], 6.29.

“T350V_F405A_Y407V / T350V_T366L_K392M_T394W (antibody)” gave a pKd in assay [1] of 6.00.

Take “T350V_L351Y_S400E_F405T_Y407V / T350V_T366L_N390R_K392M_T394W (antibody)”: in assay [1], the pKd was 6.17.

The substance “T350V_L351Y_S400E_F405A_Y407V / T350V_T366L_N390R_K392L_T394W (antibody)” had a pKd in assay [1] of 6.04.

As to F405A_Y407V / T366L_T394W (antibody), the pKd in assay [2] is 6.32.

Regarding “T350V_S400E_F405A_Y407V / T350V_T366L_N390R_K392M_T394W (antibody)”, the pKd in assay [1] was 6.00; in assay [2], 6.35.

“T350V_L351Y_S400E_F405A_Y407V / T350V_T366L_N390R_K392M_T394W (antibody)”: the pKd in assay [1] was 6.05; in assay [2] it was 6.35 and 6.38; in assay [3], 5.30.

For the origin of these results see US20200087414A1.
